Assay results taken from article PMC2756588.

What was measured:
Test in all cases: SPOT array
Rvs167, P39743 = settings: median of control spots 2707
Bem1-2, P29366 = settings: median of control spots 4347
Hof1, Q05080 = biological target: T1, Hof1, Q05080; settings: median of control spots 4086
T1 sequence (Q05080 590-669, looked up): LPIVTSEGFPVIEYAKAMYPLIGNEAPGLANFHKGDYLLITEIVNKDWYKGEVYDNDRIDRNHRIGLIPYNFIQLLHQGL

Cdc25, P04821 = biological target: T2, Cdc25, P04821; settings: median of control spots 969
T2 sequence (P04821 50-136, looked up): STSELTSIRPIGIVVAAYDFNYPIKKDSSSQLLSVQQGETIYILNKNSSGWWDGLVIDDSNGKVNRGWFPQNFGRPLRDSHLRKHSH

Hse1, P38753 = biological target: T3, Hse1, P38753; settings: median of control spots 1727
T3 sequence (P38753 208-285, looked up): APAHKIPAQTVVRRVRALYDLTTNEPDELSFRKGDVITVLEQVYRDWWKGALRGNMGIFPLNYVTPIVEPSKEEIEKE

Pex13, P80667 = biological target: T4, Pex13, P80667; settings: median of control spots 1341
T4 sequence (P80667 295-386, looked up): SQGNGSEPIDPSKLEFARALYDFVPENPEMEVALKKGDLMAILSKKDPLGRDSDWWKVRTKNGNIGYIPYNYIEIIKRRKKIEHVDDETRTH

Bzz1-2, P38822 = biological target: T5, Bzz1-2, P38822; settings: median of control spots 4538
T5 sequence (P38822 568-633, looked up): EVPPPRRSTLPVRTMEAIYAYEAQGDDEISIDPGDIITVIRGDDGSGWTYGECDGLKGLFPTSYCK

Boi1, P38041 = biological target: T6, Boi1, P38041; settings: median of control spots 1162
T6 sequence (P38041 1-86, looked up): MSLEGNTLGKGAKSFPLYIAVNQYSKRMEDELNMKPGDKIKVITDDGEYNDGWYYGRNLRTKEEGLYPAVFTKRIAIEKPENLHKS

GST = settings: median of control spots 978
Bbc1, P47068 = biological target: T7, Bbc1, P47068; settings: median of control spots 796
T7 sequence (P47068 1-78, looked up): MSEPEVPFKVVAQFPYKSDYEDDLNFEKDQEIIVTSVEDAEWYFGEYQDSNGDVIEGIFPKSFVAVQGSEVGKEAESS

Sho1, P40073 = settings: median of control spots 1148
Sho1, P40073, sequence (P40073 287-367): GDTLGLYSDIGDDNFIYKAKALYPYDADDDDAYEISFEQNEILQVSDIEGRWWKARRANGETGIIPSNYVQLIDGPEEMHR

Boi2, P39969 = biological target: T8, Boi2, P39969; settings: median of control spots 1161
T8 sequence (P39969 32-116, looked up): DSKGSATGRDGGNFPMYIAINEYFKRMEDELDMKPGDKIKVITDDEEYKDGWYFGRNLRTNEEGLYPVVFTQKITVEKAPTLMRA

Myo5, Q04439 = biological target: T9, Myo5, Q04439; settings: median of control spots 471
T9 sequence (Q04439 1072-1160, looked up): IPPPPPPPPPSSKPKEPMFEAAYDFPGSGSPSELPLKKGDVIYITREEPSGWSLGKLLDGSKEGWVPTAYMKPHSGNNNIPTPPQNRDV

Lsb3, P43603 = biological target: T10, Lsb3, P43603; settings: median of control spots 406
T10 sequence (P43603 385-451, looked up): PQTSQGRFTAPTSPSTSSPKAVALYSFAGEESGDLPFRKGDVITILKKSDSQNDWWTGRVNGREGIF

Myo3, P36006 = settings: median of control spots 468
Nbp2, Q12163 = biological target: T11, Nbp2, Q12163; settings: median of control spots 357
T11 sequence (Q12163 103-180, looked up): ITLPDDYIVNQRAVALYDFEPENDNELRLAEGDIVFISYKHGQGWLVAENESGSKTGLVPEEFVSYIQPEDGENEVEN

Fus1, P11710 = biological target: T12, Fus1, P11710; settings: median of control spots 1200
T12 sequence (P11710 432-512, looked up): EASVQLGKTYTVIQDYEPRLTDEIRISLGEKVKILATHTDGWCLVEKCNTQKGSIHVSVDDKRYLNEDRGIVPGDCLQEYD

Bzz1-1, P38822 = biological target: T13, Bzz1-1, P38822; settings: median of control spots 4446
T13 sequence (P38822 478-572, looked up): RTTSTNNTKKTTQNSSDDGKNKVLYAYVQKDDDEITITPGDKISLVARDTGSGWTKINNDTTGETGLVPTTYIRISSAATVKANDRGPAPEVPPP

Lsb4, P32793 = biological target: T14, Lsb4, P32793; settings: median of control spots 397
T14 sequence (P32793 402-468, looked up): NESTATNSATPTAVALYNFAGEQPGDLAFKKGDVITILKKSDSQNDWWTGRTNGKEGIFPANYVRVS

Sla1-2, P32790 = biological target: T15, Sla1-2, P32790; settings: median of control spots 712
T15 sequence (P32790 60-140, looked up): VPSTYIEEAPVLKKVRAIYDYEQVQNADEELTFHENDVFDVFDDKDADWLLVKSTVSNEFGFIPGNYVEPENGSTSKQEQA

Bem1-1, P29366 = settings: median of control spots 4282
Bem1-1, P29366, sequence (P29366 55-141): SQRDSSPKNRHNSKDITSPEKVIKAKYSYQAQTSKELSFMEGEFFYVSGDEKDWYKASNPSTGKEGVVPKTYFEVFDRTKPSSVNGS

Sla1-3, P32790 = biological target: T16, Sla1-3, P32790; settings: median of control spots 5475
T16 sequence (P32790 344-424, looked up): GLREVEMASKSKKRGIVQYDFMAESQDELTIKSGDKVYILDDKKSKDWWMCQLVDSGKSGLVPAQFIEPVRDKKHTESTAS

Bud14, P27637 = biological target: T17, Bud14, P27637; settings: median of control spots 956
T17 sequence (P27637 247-328, looked up): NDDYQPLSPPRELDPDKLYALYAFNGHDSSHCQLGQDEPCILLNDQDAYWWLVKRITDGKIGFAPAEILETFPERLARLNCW

Lsb1, P53281 = biological target: T18, Lsb1, P53281; settings: median of control spots 388
T18 sequence (P53281 45-122, looked up): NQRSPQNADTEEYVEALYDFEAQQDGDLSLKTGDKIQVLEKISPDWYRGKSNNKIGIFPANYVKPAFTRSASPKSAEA

Cyk3, Q07533 = biological target: T19, Cyk3, Q07533; settings: median of control spots 1451
T19 sequence (Q07533 1-83, looked up): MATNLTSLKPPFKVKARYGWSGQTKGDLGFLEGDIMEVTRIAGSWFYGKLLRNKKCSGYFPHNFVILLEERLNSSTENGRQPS

Abp1, P15891 = biological target: T20, Abp1, P15891; settings: median of control spots 935
T20 sequence (P15891 535-592, looked up): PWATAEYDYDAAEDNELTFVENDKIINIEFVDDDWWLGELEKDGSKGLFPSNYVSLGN

Pin3, Q06449 = biological target: T21, Pin3, Q06449; settings: median of control spots 2171
T21 sequence (Q06449 53-122, looked up): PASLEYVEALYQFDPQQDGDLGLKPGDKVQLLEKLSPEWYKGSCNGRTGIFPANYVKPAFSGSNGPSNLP

Bem1-2, P29366, sequence (P29366 139-227): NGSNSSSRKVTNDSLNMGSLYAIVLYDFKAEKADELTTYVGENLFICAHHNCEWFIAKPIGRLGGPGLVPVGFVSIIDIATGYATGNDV
Rvs167, P39743, sequence (P39743 419-482): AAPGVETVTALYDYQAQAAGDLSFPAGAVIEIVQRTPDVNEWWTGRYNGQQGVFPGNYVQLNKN

Binder	SPOT intensity (Rvs167, P39743)	SPOT intensity (Bem1-2, P29366)	SPOT intensity (Hof1, Q05080)	SPOT intensity (Cdc25, P04821)	SPOT intensity (Hse1, P38753)	SPOT intensity (Pex13, P80667)	SPOT intensity (Bzz1-2, P38822)	SPOT intensity (Boi1, P38041)	SPOT intensity (GST)	SPOT intensity (Bbc1, P47068)	SPOT intensity (Sho1, P40073)	SPOT intensity (Boi2, P39969)	SPOT intensity (Myo5, Q04439)	SPOT intensity (Lsb3, P43603)	SPOT intensity (Myo3, P36006)	SPOT intensity (Nbp2, Q12163)	SPOT intensity (Fus1, P11710)	SPOT intensity (Bzz1-1, P38822)	SPOT intensity (Lsb4, P32793)	SPOT intensity (Sla1-2, P32790)	also measured
EAEEAAPQLPSRSSA	75	0	0	2	0	6	2	1	0	0	0	1	0	956	0	0	1	2	529	0	SPOT intensity (Bem1-1, P29366): 0; SPOT intensity (Sla1-3, P32790): 2; SPOT intensity (Bud14, P27637): 0; SPOT intensity (Lsb1, P53281): 62; SPOT intensity (Cyk3, Q07533): 0; SPOT intensity (Abp1, P15891): 0; SPOT intensity (Pin3, Q06449): 2
QGYPRQPQRPQRYHP	0	1	3	0	3	7	0	0	1	34	0	0	0	46	0	0	0	0	16	0	SPOT intensity (Bem1-1, P29366): 0; SPOT intensity (Sla1-3, P32790): 0; SPOT intensity (Bud14, P27637): 1; SPOT intensity (Lsb1, P53281): 1; SPOT intensity (Cyk3, Q07533): 1; SPOT intensity (Abp1, P15891): 9; SPOT intensity (Pin3, Q06449): 2
LASNSPPVYPKRIRH	0	0	1	0	1	3	0	0	0	4	7	0	0	167	0	0	0	0	107	0	SPOT intensity (Bem1-1, P29366): 0; SPOT intensity (Sla1-3, P32790): 0; SPOT intensity (Bud14, P27637): 0; SPOT intensity (Lsb1, P53281): 0; SPOT intensity (Cyk3, Q07533): 0; SPOT intensity (Abp1, P15891): 68; SPOT intensity (Pin3, Q06449): 0
QRIRKIPGIPLMSVG	156	0	13	2	7	90	13	0	0	16	42	0	7	51	28	5	6	0	24	4	SPOT intensity (Bem1-1, P29366): 0; SPOT intensity (Sla1-3, P32790): 8; SPOT intensity (Bud14, P27637): 9; SPOT intensity (Lsb1, P53281): 78; SPOT intensity (Cyk3, Q07533): 2; SPOT intensity (Abp1, P15891): 110; SPOT intensity (Pin3, Q06449): 71
EQEEIAPSLPSRNSI	31	1	2	1	0	417	1	0	2	0	0	1	0	998	0	0	0	0	517	0	SPOT intensity (Bem1-1, P29366): 1; SPOT intensity (Sla1-3, P32790): 0; SPOT intensity (Bud14, P27637): 0; SPOT intensity (Lsb1, P53281): 20; SPOT intensity (Cyk3, Q07533): 1; SPOT intensity (Abp1, P15891): 0; SPOT intensity (Pin3, Q06449): 0
SAPDIPPRSPNRNAH	816	0	0	0	0	21	0	240	0	1	0	312	0	207	0	0	0	0	145	423	SPOT intensity (Bem1-1, P29366): 0; SPOT intensity (Sla1-3, P32790): 3; SPOT intensity (Bud14, P27637): 2; SPOT intensity (Lsb1, P53281): 857; SPOT intensity (Cyk3, Q07533): 0; SPOT intensity (Abp1, P15891): 8; SPOT intensity (Pin3, Q06449): 4
